{"source": "paper PMC6491520", "about": "“Antimicrobial Peptide LL-37 Facilitates Intracellular Uptake of RNA Aptamer Apt 21-2 Without Inducing an Inflammatory or Interferon Response”", "binders": {"B1": {"name": "Apt 21-2 (XNA)", "RNA": "GGUCUAGCCGGAGGAGUCAGUAAUCGGUAGACC", "modifications": "2'-fluoro C and U"}}, "key": {"[1]": {"biological_target": "T1, LL-37 (cathelicidin antimicrobial peptide) (UniProt P49913 134-170)", "T1 chain": "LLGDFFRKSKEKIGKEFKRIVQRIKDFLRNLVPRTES", "assay": "EMSA; apparent KD from 50% loss of free aptamer; 100 nM RNA; 1 h on ice, 100 nM aptamer, 0-100 uM LL-37; binding buffer not stated; EMSA loading with 60 mM KCl, 10 mM Tris pH 7.6, 40% glycerol; 7% native PAGE in TBE", "conditions": "label: 5' 32P"}, "[2]": {"biological_target": "T1, LL-37 (cathelicidin antimicrobial …)", "assay": "filter binding; apparent KD from 50% loss of free aptamer; 100 nM RNA; 1 h on ice, 100 nM aptamer, 0-100 uM LL-37; binding buffer not stated; EMSA loading with 60 mM KCl, 10 mM Tris pH 7.6, 40% glycerol; 7% native PAGE in TBE", "conditions": "label: 5' 32P"}}, "data": [{"binder": "B1", "values": [{"measurement": "Kd", "setting": "[1]", "result": "~2", "unit": "µM"}, {"measurement": "Kd", "setting": "[2]", "result": "~2", "unit": "µM"}]}]}
